Assay results as given in the Human Domainome abundance scans (Beltran et al. 2025).
± gives the uncertainty stated by the source.

B1: COUP transcription factor 1, residues 83 to 159; numbered along this chain, P10589 (parent)
chain: HIECVVCGDKSSGKHYGQFTCEGCKSFFKRSVRRNLTYTCRANRNCPIDQHHRNQCQYCRLKKCLKVGMRREAVQRG

Variants of: B1
Experiment: abundance fitness (aPCA) (normalised: wild type 0, dead -1); higher = more abundant; growth selection in yeast, the domain comes from the species named
Details: Homo sapiens
N54P gave an abundance fitness of 0.006 ± 0.066. With N54D the abundance fitness was -0.071 ± 0.079. For N54T, the abundance fitness was -0.059 ± 0.059. N54S showed an abundance fitness of -0.033 ± 0.051. N54L gave an abundance fitness of -0.029 ± 0.043. N54Q gave an abundance fitness of -0.091 ± 0.057. H52C showed an abundance fitness of -0.092 ± 0.061. H52V gave an abundance fitness of 0.023 ± 0.042. Variant H52Y has an abundance fitness of -0.225 ± 0.067. Variant H52K has an abundance fitness of -0.035 ± 0.055. For H52S, the abundance fitness was -0.102 ± 0.043. R70M showed an abundance fitness of 0.173 ± 0.095. In the case of R70T, the abundance fitness is reported as 0.023 ± 0.048. With R70D the abundance fitness was 0.163 ± 0.052. S26K showed an abundance fitness of 0.321 ± 0.15. Work on S26V yielded an abundance fitness of 0.088 ± 0.09. With S26I the abundance fitness was -0.611 ± 0.43. With S26E the abundance fitness was 0.144 ± 0.079. With S26Q the abundance fitness was 0.247 ± 0.08. With S26L the abundance fitness was -0.035 ± 0.11. Variant S26F has an abundance fitness of -0.275 ± 0.23. S11W showed an abundance fitness of -0.236 ± 0.064. Work on S11R yielded an abundance fitness of -0.377 ± 0.06. K25S showed an abundance fitness of 0.067 ± 0.051. K25M showed an abundance fitness of 0.177 ± 0.059. Variant K25W has an abundance fitness of 0.003 ± 0.044. K25G gave an abundance fitness of 0.064 ± 0.034. For K25F, the abundance fitness was 0.168 ± 0.086. For S12K, the abundance fitness was -0.194 ± 0.074. Work on S12G yielded an abundance fitness of 0.021 ± 0.048. In the case of S12W, the abundance fitness is reported as -0.675 ± 0.12. S12R gave an abundance fitness of -0.205 ± 0.051. With S12M the abundance fitness was -0.113 ± 0.063. Work on S12E yielded an abundance fitness of 0.1 ± 0.06. S12V showed an abundance fitness of 0.076 ± 0.043. For S12A, the abundance fitness was -0.018 ± 0.05. N35C gave an abundance fitness of 0.538 ± 0.32. N35T gave an abundance fitness of -0.346 ± 0.15. For N35S, the abundance fitness was -0.508 ± 0.24. For L36K, the abundance fitness was 0.126 ± 0.11. With L36H the abundance fitness was 0.095 ± 0.38. For L36Q, the abundance fitness was -0.113 ± 0.1. With L36R the abundance fitness was -0.082 ± 0.05. For L36C, the abundance fitness was -0.206 ± 0.14. K62W showed an abundance fitness of -0.162 ± 0.049. With K62R the abundance fitness was -0.073 ± 0.033. Variant K62Q has an abundance fitness of -0.001 ± 0.061. K62P gave an abundance fitness of -0.573 ± 0.11. In the case of K62V, the abundance fitness is reported as 0.086 ± 0.037. K62C gave an abundance fitness of -0.257 ± 0.089. For G77Q, the abundance fitness was 0.304 ± 0.075. G77S showed an abundance fitness of 0.064 ± 0.052. Variant G77T has an abundance fitness of -0.016 ± 0.07. F27S showed an abundance fitness of -0.815 ± 0.17. With F27G the abundance fitness was -0.83 ± 0.093. In the case of F27D, the abundance fitness is reported as -0.783 ± 0.28. Work on F27N yielded an abundance fitness of -0.222 ± 0.29. With F27R the abundance fitness was -0.515 ± 0.071. F27H gave an abundance fitness of -0.634 ± 0.39. A42H showed an abundance fitness of -0.068 ± 0.34. R34M gave an abundance fitness of -0.002 ± 0.1. R34V gave an abundance fitness of -0.137 ± 0.085. Variant R34G has an abundance fitness of 0.131 ± 0.048. In the case of K10M, the abundance fitness is reported as -0.067 ± 0.059. Work on K10D yielded an abundance fitness of 0.16 ± 0.077. In the case of K10E, the abundance fitness is reported as -0.104 ± 0.06. K10S gave an abundance fitness of -0.153 ± 0.051. With F28K the abundance fitness was -0.419 ± 0.19. In the case of F28R, the abundance fitness is reported as -0.698 ± 0.073. In the case of F28D, the abundance fitness is reported as -0.991 ± 0.33. F28W gave an abundance fitness of -0.069 ± 0.058. F28P showed an abundance fitness of -1.04 ± 0.33. F28Y showed an abundance fitness of -0.42 ± 0.19. In the case of D49L, the abundance fitness is reported as -0.122 ± 0.052. Work on D49M yielded an abundance fitness of -0.175 ± 0.11. With D49H the abundance fitness was -0.269 ± 0.075. Work on C64R yielded an abundance fitness of -0.908 ± 0.077. C64Y showed an abundance fitness of -0.537 ± 0.12. C64G showed an abundance fitness of -0.669 ± 0.049. C64I showed an abundance fitness of -0.928 ± 0.25. Variant C64F has an abundance fitness of -0.903 ± 0.24. Variant C64M has an abundance fitness of -0.059 ± 0.049. For C64S, the abundance fitness was -0.475 ± 0.062.
